Measured values taken from publication PMC9916421.

Target: DrMoaE (MoaE of Deinococcus radiodurans, large subunit of MPT synthase) (Deinococcus radiodurans)
Assay: SEC; gel filtration profiles of DrMoaE and DrMoaER110A; standard curve from aprotinin, RNaseA, chymotrypsinogen A, ovalbumin and BSA

Q: For “DrMoaE (MoaE of Deinococcus radiodurans, large subunit of MPT synthase) (natural protein)”, which stoichiometry N is on record?
A: The stoichiometry N was 2.
